In patent publication CN116355099A (BEIJING KENUO XINCHENG TECH CO LTD, dated 2023):

T1: 人OX40胞外区重组蛋白(OX40-His) (human, UniProt P43489 29-214)
T1 construct: extracellular domain; also called 人OX40重组蛋白(10481-H08H，北京义翘神州); 人OX40胞外区融合蛋白; not shown: His tag
T1 sequence (looked up): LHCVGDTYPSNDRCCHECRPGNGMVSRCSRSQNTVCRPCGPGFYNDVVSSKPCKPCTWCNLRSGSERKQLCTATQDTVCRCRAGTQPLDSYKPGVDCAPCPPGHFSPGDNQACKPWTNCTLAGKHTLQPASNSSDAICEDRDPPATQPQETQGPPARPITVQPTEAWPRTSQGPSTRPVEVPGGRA

T2: human OX40 on HT1080-hOX40 cells (human, UniProt P43489 29-277)
T2 sequence (looked up): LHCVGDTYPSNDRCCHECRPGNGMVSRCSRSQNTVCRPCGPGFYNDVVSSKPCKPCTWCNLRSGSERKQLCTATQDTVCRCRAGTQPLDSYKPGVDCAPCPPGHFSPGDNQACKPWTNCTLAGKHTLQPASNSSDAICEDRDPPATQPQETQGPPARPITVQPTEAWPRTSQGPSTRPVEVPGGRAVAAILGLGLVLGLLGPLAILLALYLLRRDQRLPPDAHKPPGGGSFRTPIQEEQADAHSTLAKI

B1: hz25A7-hzF2 (bispecific antibody, human IgG1, kappa)
heavy: not shown
light: DIQMTQSPSSLSASVGDRVTITCRASKSVSTSGSSYIHWYQQKPGKAPKLLIYLASNLESGVPSRFSGSGSGTDFTLTISSLQPEDFATYYCQHSRELPLTFGGGTKVEIKRTVAAPSVFIFPPSDEQLKSGTASVVCLLNNFYPREAKVQWKVDNALQSGNSQESVTEQDSKDSTYSLSSTLTLSKADYEKHKVYACEVTHQGLSSPVTKSFNRGEC
notes: Symmetric four-chain molecule (two of peptide chain 1, two of peptide chain 2); expressed in HEK293, purified on Protein A; also called 抗PD-L1/OX40双特异性抗体 hz25A7-hzF2; OX40/PD-L1双特异性抗体
B2: hz27G12-hzF2 (bispecific antibody, human IgG1, kappa)
heavy: not shown
light: EIVMTQSPATLSVSPGERATLSCKASQSVDYEGDSYMNWYQQKPGQAPKLLIYAASNLESGIPARFSGSGSGTDFTLTISSLEPEDFATYYCQQSNEDPYTFGGGTKVEIKRTVAAPSVFIFPPSDEQLKSGTASVVCLLNNFYPREAKVQWKVDNALQSGNSQESVTEQDSKDSTYSLSSTLTLSKADYEKHKVYACEVTHQGLSSPVTKSFNRGEC
notes: Symmetric four-chain molecule (two of peptide chain 1, two of peptide chain 2); expressed in HEK293, purified on Protein A; also called 抗PD-L1/OX40双特异性抗体 hz27G12-hzF2; OX40/PD-L1双特异性抗体
B3: 抗OX40人源化抗体hz25A7 (antibody, V domains shown)
VH: EVQLVESGGGLVQPGRSLRLSCAASGFTFSSHDMSWVRQAPGKGLELVAAINSEGGRIYYPDTMERRFTISRDNSKNTLYLQMNSLRAEDTAVYYCARHYDNYAWFAYWGQGTLVTVSS
VL: DIQMTQSPSSLSASVGDRVTITCRASKSVSTSGSSYIHWYQQKPGKAPKLLIYLASNLESGVPSRFSGSGSGTDFTLTISSLQPEDFATYYCQHSRELPLTFGGGTKVEIK
notes: Parental humanised anti-OX40 monoclonal antibody (from CN202010063141.3); also called 单抗hz25A7
B4: 抗OX40人源化抗体hz27G12 (antibody, V domains shown)
VH: EVQLVQSGAEVKKPGASVKVSCKASGYTFTEYIIHWVRQAPGQGLEWIGWFYPESGSIKYNEKFKDRVTITRDTSTSTVYMELSSLRSEDTAVYYCARHEDPITFAYWGQGTLVTVSS
VL: EIVMTQSPATLSVSPGERATLSCKASQSVDYEGDSYMNWYQQKPGQAPKLLIYAASNLESGIPARFSGSGSGTDFTLTISSLEPEDFATYYCQQSNEDPYTFGGGTKVEIK
notes: Parental humanised anti-OX40 monoclonal antibody (from CN202010063141.3); also called 单抗hz27G12

Tests used:
人OX40胞外区重组蛋白(OX40-His) [1] = target: T1, 人OX40胞外区重组蛋白(OX40-His); assay: ELISA, OX40-His coated at 1 ug/mL, anti-human Fc-HRP detection
人OX40胞外区重组蛋白(OX40-His) [2] = target: T1, 人OX40胞外区重组蛋白(OX40-His); assay: BLI (Octet QKe), antibody captured on AHC probe, antigen in solution, 1:1 Langmuir fit
人PD-L1胞外区重组蛋白(PD-L1-His) [3] = target: T3, 人PD-L1胞外区重组蛋白(PD-L1-His) (human, UniProt Q9NZQ7 19-238); assay: as above
T3 construct: extracellular domain; also called 人PD-L1重组蛋白(10084-H08H，北京义翘神州); 人PD-L1胞外区融合蛋白; not shown: His tag

[4] = target: T2, human OX40 on HT1080-hOX40 cells; assay: cell-based or functional assay
[5] = target: PD-L1 on CHO-PD-L1-CD3L cells (UniProt Q9NZQ7 19-290, limits assumed); assay: cell-based or functional assay
PD-L1-mFc = target: T4, PD-L1-mFc (UniProt Q9NZQ7 19-238, limits assumed); assay: competition ELISA: PD-1-hFc coated, PD-L1-mFc 1 ug/ml in solution, blocking of PD-L1 binding to PD-1
T4 construct: also called 重组PD-L1; not shown: mouse Fc (mFc)

人PD-L1胞外区重组蛋白(PD-L1-His) [6] = target: T3, 人PD-L1胞外区重组蛋白(PD-L1-His); assay: ELISA, PD-L1-His coated at 1 ug/mL, anti-human Fc-HRP detection
人OX40胞外区重组蛋白(OX40-His) [7] = target: T1, 人OX40胞外区重组蛋白(OX40-His); assay: ELISA, OX40-His coated

T3 sequence (Q9NZQ7 19-238): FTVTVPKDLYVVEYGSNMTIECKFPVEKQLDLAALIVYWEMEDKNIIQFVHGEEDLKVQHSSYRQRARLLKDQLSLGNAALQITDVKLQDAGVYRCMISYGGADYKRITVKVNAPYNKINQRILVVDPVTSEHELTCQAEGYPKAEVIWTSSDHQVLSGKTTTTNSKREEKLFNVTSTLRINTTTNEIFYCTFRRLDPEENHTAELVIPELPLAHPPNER
T4 sequence (Q9NZQ7 19-238 limits assumed): as the sequence (Q9NZQ7 19-238) above
PD-L1 on CHO-PD-L1-CD3L cells, sequence (Q9NZQ7 19-290 limits assumed): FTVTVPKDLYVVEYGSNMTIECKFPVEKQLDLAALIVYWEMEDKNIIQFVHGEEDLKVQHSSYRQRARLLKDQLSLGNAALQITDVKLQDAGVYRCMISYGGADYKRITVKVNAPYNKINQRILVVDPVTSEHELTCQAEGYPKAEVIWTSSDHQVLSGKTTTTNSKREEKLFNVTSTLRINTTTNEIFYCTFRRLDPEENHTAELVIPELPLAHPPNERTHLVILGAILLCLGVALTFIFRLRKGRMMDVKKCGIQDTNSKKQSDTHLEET

Binder	EC50 (人OX40胞外区重组蛋白(OX40-His) [1]) [nM]	Kd (人OX40胞外区重组蛋白(OX40-His) [2]) [nM]	Kd (人PD-L1胞外区重组蛋白(PD-L1-His) [3]) [nM]	刺激HT1080-huOX40细胞表达IL8活性, EC50 [4] [µg/mL]	对PD-1/PD-L1信号通路的阻断活性 (Jurkat-PD1-NFAT / CHO-PD-L1-CD3L luciferase reporter), IC50 [5] [nM]	IC50 (PD-L1-mFc) [nM]	EC50 (人PD-L1胞外区重组蛋白(PD-L1-His) [6]) [nM]	binding result (人OX40胞外区重组蛋白(OX40-His) [7])
B1	0.0877	5	1	0.247	4.75	6.84	0.563	
B2	0.0781	8	1.3	2.28	3.38	7.12	0.651	
B3								binds
B4								binds
